Data as given in patent publication US20150344570A1 (published 2015).

target: T1, FcγRIa (human, UniProt P12314 16-292); experiment: SPR (Biacore); He Ab vs HeCon Ab GpH7-A5/GpH7-B3/GpL16-k0
T1 construct: extracellular domain; Soluble extracellular domain expressed in FreeStyle293 cells, used as analyte in Biacore; also called FcgRI; 1a; not shown: His tag attached to the C terminus
Description: Analysis of interaction between objective antibody and the FcγR was carried out using Biacore T100 (GE Healthcare). HBS-EP+ (GE Healthcare) was used as the running buffer, and the measurement temperature was set to 25° C. Chips produced by immobilizing the antigen peptide by the amine coupling method to a Series S Sencor Chip CM5 (GE Healthcare), or alternatively, chips produced by allowing preliminarily biotinylated antigen peptides to interact with and immobilize onto a Series S Sensor Chip SA (certified) (GE Healthcare) were used. Antibodies of interest were captured onto an antigen peptide-immobilized chip, and allowed to interact to each FcγR diluted with running buffer. To regenerate and repeatedly use the chip, the antibodies captured on the chip were washed off by reacting 10 mM glycine-HCl, pH 1.5.

T1 sequence (P12314 16-292): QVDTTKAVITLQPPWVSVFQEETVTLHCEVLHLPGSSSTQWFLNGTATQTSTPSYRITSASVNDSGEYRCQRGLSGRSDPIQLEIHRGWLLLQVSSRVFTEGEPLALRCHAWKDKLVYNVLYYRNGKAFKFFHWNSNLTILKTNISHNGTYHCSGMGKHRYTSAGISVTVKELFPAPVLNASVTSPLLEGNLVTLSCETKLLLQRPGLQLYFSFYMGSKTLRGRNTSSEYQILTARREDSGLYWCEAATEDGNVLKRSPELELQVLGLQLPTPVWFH

He/Con_1a | Binder
107 relative binding, control = 100 | GpH7-A5/GpH7-B3 variant S298_02A/GpL16-k0 (antibody, human IgG1, kappa, also called He Ab S298_02A; GpH7-A5/GpH7-B3-15-02A/GpL16-k0) heavy 1: not shown heavy 2: not shown light: DIVMTQSPLSLPVTPGEPASISCQASESLVHSNRNTYLHWYLQKPGQSPQLLIYKVSNRFSGVPDRFSGSGSGTDFTLKISRVEAEDVGVYYCSQNTHVPPTFGQGTKVEIERTVAAPSVFIFPPSDEQLKSGTASVVCLLNNFYPREAKVQWKVDNALQSGNSQESVTEQDSKDSTYSLSSTLTLSKADYEKHKVYACEVTHQGLSSPVTKSFNRGEC
104 relative binding, control = 100 | GpH7-A5/GpH7-B3 variant S298_01G/GpL16-k0 (antibody, human IgG1, kappa, also called He Ab S298_01G) heavy 1: not shown heavy 2: not shown light: DIVMTQSPLSLPVTPGEPASISCQASESLVHSNRNTYLHWYLQKPGQSPQLLIYKVSNRFSGVPDRFSGSGSGTDFTLKISRVEAEDVGVYYCSQNTHVPPTFGQGTKVEIERTVAAPSVFIFPPSDEQLKSGTASVVCLLNNFYPREAKVQWKVDNALQSGNSQESVTEQDSKDSTYSLSSTLTLSKADYEKHKVYACEVTHQGLSSPVTKSFNRGEC
110 relative binding, control = 100 | GpH7-A5/GpH7-B3 variant S267_09D/GpL16-k0 (antibody, human IgG1, kappa, also called He Ab S267_09D) heavy 1: not shown heavy 2: not shown light: DIVMTQSPLSLPVTPGEPASISCQASESLVHSNRNTYLHWYLQKPGQSPQLLIYKVSNRFSGVPDRFSGSGSGTDFTLKISRVEAEDVGVYYCSQNTHVPPTFGQGTKVEIERTVAAPSVFIFPPSDEQLKSGTASVVCLLNNFYPREAKVQWKVDNALQSGNSQESVTEQDSKDSTYSLSSTLTLSKADYEKHKVYACEVTHQGLSSPVTKSFNRGEC
110 relative binding, control = 100 | GpH7-A5/GpH7-B3 variant S298_03V/GpL16-k0 (antibody, human IgG1, kappa, also called He Ab S298_03V) heavy 1: not shown heavy 2: not shown light: DIVMTQSPLSLPVTPGEPASISCQASESLVHSNRNTYLHWYLQKPGQSPQLLIYKVSNRFSGVPDRFSGSGSGTDFTLKISRVEAEDVGVYYCSQNTHVPPTFGQGTKVEIERTVAAPSVFIFPPSDEQLKSGTASVVCLLNNFYPREAKVQWKVDNALQSGNSQESVTEQDSKDSTYSLSSTLTLSKADYEKHKVYACEVTHQGLSSPVTKSFNRGEC
100 relative binding, control = 100 | GpH7-A5/GpH7-B3 variant S267_16H/GpL16-k0 (antibody, human IgG1, kappa, also called He Ab S267_16H) heavy 1: not shown heavy 2: not shown light: DIVMTQSPLSLPVTPGEPASISCQASESLVHSNRNTYLHWYLQKPGQSPQLLIYKVSNRFSGVPDRFSGSGSGTDFTLKISRVEAEDVGVYYCSQNTHVPPTFGQGTKVEIERTVAAPSVFIFPPSDEQLKSGTASVVCLLNNFYPREAKVQWKVDNALQSGNSQESVTEQDSKDSTYSLSSTLTLSKADYEKHKVYACEVTHQGLSSPVTKSFNRGEC
109 relative binding, control = 100 | GpH7-A5/GpH7-B3 variant S298_04F/GpL16-k0 (antibody, human IgG1, kappa, also called He Ab S298_04F) heavy 1: not shown heavy 2: not shown light: DIVMTQSPLSLPVTPGEPASISCQASESLVHSNRNTYLHWYLQKPGQSPQLLIYKVSNRFSGVPDRFSGSGSGTDFTLKISRVEAEDVGVYYCSQNTHVPPTFGQGTKVEIERTVAAPSVFIFPPSDEQLKSGTASVVCLLNNFYPREAKVQWKVDNALQSGNSQESVTEQDSKDSTYSLSSTLTLSKADYEKHKVYACEVTHQGLSSPVTKSFNRGEC

Continued, binder first:

Binder | He/Con_1a
GpH7-A5/GpH7-B3 variant Q295_05P/GpL16-k0 (antibody, human IgG1, kappa, also called He Ab Q295_05P) heavy 1: not shown heavy 2: not shown light: DIVMTQSPLSLPVTPGEPASISCQASESLVHSNRNTYLHWYLQKPGQSPQLLIYKVSNRFSGVPDRFSGSGSGTDFTLKISRVEAEDVGVYYCSQNTHVPPTFGQGTKVEIERTVAAPSVFIFPPSDEQLKSGTASVVCLLNNFYPREAKVQWKVDNALQSGNSQESVTEQDSKDSTYSLSSTLTLSKADYEKHKVYACEVTHQGLSSPVTKSFNRGEC | 103 relative binding, control = 100
GpH7-A5/GpH7-B3 variant S239_09D/GpL16-k0 (antibody, human IgG1, kappa, also called He Ab S239_09D) heavy 1: not shown heavy 2: not shown light: DIVMTQSPLSLPVTPGEPASISCQASESLVHSNRNTYLHWYLQKPGQSPQLLIYKVSNRFSGVPDRFSGSGSGTDFTLKISRVEAEDVGVYYCSQNTHVPPTFGQGTKVEIERTVAAPSVFIFPPSDEQLKSGTASVVCLLNNFYPREAKVQWKVDNALQSGNSQESVTEQDSKDSTYSLSSTLTLSKADYEKHKVYACEVTHQGLSSPVTKSFNRGEC | 101 relative binding, control = 100
GpH7-A5/GpH7-B3 variant Q295_18N/GpL16-k0 (antibody, human IgG1, kappa, also called He Ab Q295_18N) heavy 1: not shown heavy 2: not shown light: DIVMTQSPLSLPVTPGEPASISCQASESLVHSNRNTYLHWYLQKPGQSPQLLIYKVSNRFSGVPDRFSGSGSGTDFTLKISRVEAEDVGVYYCSQNTHVPPTFGQGTKVEIERTVAAPSVFIFPPSDEQLKSGTASVVCLLNNFYPREAKVQWKVDNALQSGNSQESVTEQDSKDSTYSLSSTLTLSKADYEKHKVYACEVTHQGLSSPVTKSFNRGEC | 102 relative binding, control = 100
GpH7-A5/GpH7-B3 variant S267_01G/GpL16-k0 (antibody, human IgG1, kappa, also called He Ab S267_01G) heavy 1: not shown heavy 2: not shown light: DIVMTQSPLSLPVTPGEPASISCQASESLVHSNRNTYLHWYLQKPGQSPQLLIYKVSNRFSGVPDRFSGSGSGTDFTLKISRVEAEDVGVYYCSQNTHVPPTFGQGTKVEIERTVAAPSVFIFPPSDEQLKSGTASVVCLLNNFYPREAKVQWKVDNALQSGNSQESVTEQDSKDSTYSLSSTLTLSKADYEKHKVYACEVTHQGLSSPVTKSFNRGEC | 103 relative binding, control = 100
GpH7-A5/GpH7-B3 variant Q295_13S/GpL16-k0 (antibody, human IgG1, kappa, also called He Ab Q295_13S) heavy 1: not shown heavy 2: not shown light: DIVMTQSPLSLPVTPGEPASISCQASESLVHSNRNTYLHWYLQKPGQSPQLLIYKVSNRFSGVPDRFSGSGSGTDFTLKISRVEAEDVGVYYCSQNTHVPPTFGQGTKVEIERTVAAPSVFIFPPSDEQLKSGTASVVCLLNNFYPREAKVQWKVDNALQSGNSQESVTEQDSKDSTYSLSSTLTLSKADYEKHKVYACEVTHQGLSSPVTKSFNRGEC | 102 relative binding, control = 100
GpH7-A5/GpH7-B3 variant S239_14T/GpL16-k0 (antibody, human IgG1, kappa, also called He Ab S239_14T) heavy 1: not shown heavy 2: not shown light: DIVMTQSPLSLPVTPGEPASISCQASESLVHSNRNTYLHWYLQKPGQSPQLLIYKVSNRFSGVPDRFSGSGSGTDFTLKISRVEAEDVGVYYCSQNTHVPPTFGQGTKVEIERTVAAPSVFIFPPSDEQLKSGTASVVCLLNNFYPREAKVQWKVDNALQSGNSQESVTEQDSKDSTYSLSSTLTLSKADYEKHKVYACEVTHQGLSSPVTKSFNRGEC | 101 relative binding, control = 100
GpH7-A5/GpH7-B3 variant S267_03V/GpL16-k0 (antibody, human IgG1, kappa, also called He Ab S267_03V) heavy 1: not shown heavy 2: not shown light: DIVMTQSPLSLPVTPGEPASISCQASESLVHSNRNTYLHWYLQKPGQSPQLLIYKVSNRFSGVPDRFSGSGSGTDFTLKISRVEAEDVGVYYCSQNTHVPPTFGQGTKVEIERTVAAPSVFIFPPSDEQLKSGTASVVCLLNNFYPREAKVQWKVDNALQSGNSQESVTEQDSKDSTYSLSSTLTLSKADYEKHKVYACEVTHQGLSSPVTKSFNRGEC | 106 relative binding, control = 100
GpH7-A5/GpH7-B3 variant S267_08L/GpL16-k0 (antibody, human IgG1, kappa, also called He Ab S267_08L) heavy 1: not shown heavy 2: not shown light: DIVMTQSPLSLPVTPGEPASISCQASESLVHSNRNTYLHWYLQKPGQSPQLLIYKVSNRFSGVPDRFSGSGSGTDFTLKISRVEAEDVGVYYCSQNTHVPPTFGQGTKVEIERTVAAPSVFIFPPSDEQLKSGTASVVCLLNNFYPREAKVQWKVDNALQSGNSQESVTEQDSKDSTYSLSSTLTLSKADYEKHKVYACEVTHQGLSSPVTKSFNRGEC | 101 relative binding, control = 100
GpH7-A5/GpH7-B3 variant Q295_08L/GpL16-k0 (antibody, human IgG1, kappa, also called He Ab Q295_08L) heavy 1: not shown heavy 2: not shown light: DIVMTQSPLSLPVTPGEPASISCQASESLVHSNRNTYLHWYLQKPGQSPQLLIYKVSNRFSGVPDRFSGSGSGTDFTLKISRVEAEDVGVYYCSQNTHVPPTFGQGTKVEIERTVAAPSVFIFPPSDEQLKSGTASVVCLLNNFYPREAKVQWKVDNALQSGNSQESVTEQDSKDSTYSLSSTLTLSKADYEKHKVYACEVTHQGLSSPVTKSFNRGEC | 105 relative binding, control = 100
GpH7-A5/GpH7-B3 variant Q295_07I/GpL16-k0 (antibody, human IgG1, kappa, also called He Ab Q295_07I) heavy 1: not shown heavy 2: not shown light: DIVMTQSPLSLPVTPGEPASISCQASESLVHSNRNTYLHWYLQKPGQSPQLLIYKVSNRFSGVPDRFSGSGSGTDFTLKISRVEAEDVGVYYCSQNTHVPPTFGQGTKVEIERTVAAPSVFIFPPSDEQLKSGTASVVCLLNNFYPREAKVQWKVDNALQSGNSQESVTEQDSKDSTYSLSSTLTLSKADYEKHKVYACEVTHQGLSSPVTKSFNRGEC | 103 relative binding, control = 100
GpH7-A5/GpH7-B3 variant S267_02A/GpL16-k0 (antibody, human IgG1, kappa, also called He Ab S267_02A) heavy 1: not shown heavy 2: not shown light: DIVMTQSPLSLPVTPGEPASISCQASESLVHSNRNTYLHWYLQKPGQSPQLLIYKVSNRFSGVPDRFSGSGSGTDFTLKISRVEAEDVGVYYCSQNTHVPPTFGQGTKVEIERTVAAPSVFIFPPSDEQLKSGTASVVCLLNNFYPREAKVQWKVDNALQSGNSQESVTEQDSKDSTYSLSSTLTLSKADYEKHKVYACEVTHQGLSSPVTKSFNRGEC | 109 relative binding, control = 100
GpH7-A5/GpH7-B3 variant Q295_14T/GpL16-k0 (antibody, human IgG1, kappa, also called He Ab Q295_14T) heavy 1: not shown heavy 2: not shown light: DIVMTQSPLSLPVTPGEPASISCQASESLVHSNRNTYLHWYLQKPGQSPQLLIYKVSNRFSGVPDRFSGSGSGTDFTLKISRVEAEDVGVYYCSQNTHVPPTFGQGTKVEIERTVAAPSVFIFPPSDEQLKSGTASVVCLLNNFYPREAKVQWKVDNALQSGNSQESVTEQDSKDSTYSLSSTLTLSKADYEKHKVYACEVTHQGLSSPVTKSFNRGEC | 103 relative binding, control = 100
GpH7-A5/GpH7-B3 variant S239_18N/GpL16-k0 (antibody, human IgG1, kappa, also called He Ab S239_18N) heavy 1: not shown heavy 2: not shown light: DIVMTQSPLSLPVTPGEPASISCQASESLVHSNRNTYLHWYLQKPGQSPQLLIYKVSNRFSGVPDRFSGSGSGTDFTLKISRVEAEDVGVYYCSQNTHVPPTFGQGTKVEIERTVAAPSVFIFPPSDEQLKSGTASVVCLLNNFYPREAKVQWKVDNALQSGNSQESVTEQDSKDSTYSLSSTLTLSKADYEKHKVYACEVTHQGLSSPVTKSFNRGEC | 101 relative binding, control = 100
GpH7-A5/GpH7-B3 variant S239_01G/GpL16-k0 (antibody, human IgG1, kappa, also called He Ab S239_01G) heavy 1: not shown heavy 2: not shown light: DIVMTQSPLSLPVTPGEPASISCQASESLVHSNRNTYLHWYLQKPGQSPQLLIYKVSNRFSGVPDRFSGSGSGTDFTLKISRVEAEDVGVYYCSQNTHVPPTFGQGTKVEIERTVAAPSVFIFPPSDEQLKSGTASVVCLLNNFYPREAKVQWKVDNALQSGNSQESVTEQDSKDSTYSLSSTLTLSKADYEKHKVYACEVTHQGLSSPVTKSFNRGEC | 101 relative binding, control = 100
GpH7-A5/GpH7-B3 variant S239_19Q/GpL16-k0 (antibody, human IgG1, kappa, also called He Ab S239_19Q) heavy 1: not shown heavy 2: not shown light: DIVMTQSPLSLPVTPGEPASISCQASESLVHSNRNTYLHWYLQKPGQSPQLLIYKVSNRFSGVPDRFSGSGSGTDFTLKISRVEAEDVGVYYCSQNTHVPPTFGQGTKVEIERTVAAPSVFIFPPSDEQLKSGTASVVCLLNNFYPREAKVQWKVDNALQSGNSQESVTEQDSKDSTYSLSSTLTLSKADYEKHKVYACEVTHQGLSSPVTKSFNRGEC | 101 relative binding, control = 100
